Results from PMC12430135, “A Unique Trimeric Assembly of Human Dishevelled 1 PDZ Domain in Crystal: Implication of Homo- and Hetero-Oligomerization During Wnt Signaling Process” (Molecules, 2025).

B1: PDZ domain of human Dishevelled 1 (hDvl1-PDZ), residues 246-340 with CW338, 339AT (domain or fragment, UniProt O14640 246-340, looked up)
chain: SLNIVTVTLNMERHHFLGISIVGQSNDRGDGGIYIGSIMKGGAVAADGRIEPGDMLLQVNDVNFENMSNDDAVRVLREIVSQTGPISLTVAKATD
notes: Dishevelled 1 (Dvl1), human, PDZ domain, residues 246-340, with two amino acid substitutions (CW338, 339AT); 15N-labelled (M9 medium) for NMR; Calculated molecular weight of the monomer printed as 10,754; also called human Dvl1-PDZ; hDvl1-PDZ1

Experiments:
[1] = biological target: Dvl PDZ PDZ (Homo sapiens) (UniProt O14640); conditions: cited from earlier work
[2] = biological target: the molecule itself; assay: crystal structure; hDvl1-PDZ at 8-9.5 mg/ml; vapor diffusion at 20 °C; 0.1 M sodium citrate pH 5.6, 0.5 M ammonium sulfate, 1.0 M lithium sulfate, 0.01 M glutathione, 0.01 M glutathione disulfide; 2.4 Å

Molecule	Kd [1] [µM]	stoichiometry N [2]
Dvl C-terminus C-terminus (from UniProt O14640)	7	
B1		3
